This is an account of results in publication PMC7339583 (Alzheimer's Research & Therapy, 2020).

For test [1], the target named is T1, CatD (Homo sapiens, UniProt P07339).
T1 construct: purchased Enzo Life Sciences
Nature of the test: Competitive inhibition of CatD activity, fluorogenic substrate (fluorescence dequenching). The format is biochemical. The note with it: mean ± SEM of 4–8 replicates (Fig. 4f). As for the experimental part:
To address this, we tested the extent to which different peptides at identical concentrations inhibited CatD activity monitored with a fluorogenic substrate.
For the determination of the pH dependence of Aβ degradation in soluble brain extracts, freshly harvested brain tissue from 15-day-old mice was dissociated in 20 mM Tris-HCl, pH 7.4 at 4 °C using a Dounce homogenizer, then centrifuged at 1000×g. The resulting supernatant was diluted 1:20 in Britton-Robinson buffers of different pHs, and CatD activity was quantified either using a well-characterized fluorescence polarization-based Aβ degradation assay as described or by monitoring hydrolysis of the CatD-specific fluorogenic substrate, Mca-[…]-Dnp. Kinetic experiments were conducted using freshly prepared, monomeric Aβ peptides separated from aggregated species by size-exclusion chromatography (SEC) and characterized as described. Aβ peptides and PepA were diluted in neutral Dilution Buffer (20 mM Tris, pH 8.0 supplemented with 0.1% BSA), with addition of DMSO as appropriate, and reactions were initiated by transfer into Assay Buffer (60 mM Na-citrate; 80 mM Na2HPO4, pH 4.0; Sigma) supplemented with purified human CatD (Enzo Life Sciences). Where required, reactions were terminated by adjustment to neutral pH with 10× Stop Buffer (0.2 M Tris-HCL, pH 9.5 supplemented with 10 μM PepA). […] Competitive inhibition experiments were conducted using either ELISAs, an Aβ-degradation assay or the fluorogenic substrate.

Test [2] addresses Cathepsin D (purified human CatD, Enzo Life Sciences) (human) (UniProt P07339).
For test [3], the target named is T2, insulin-degrading enzyme (IDE) (Mus musculus, UniProt Q9JHR7).
T2 construct: freshly harvested brain tissue from 15-day-old mice was dissociated in 20 mM Tris-HCl, pH 7.4; from tissue; host or cells: mouse brain, soluble extract (15-day-old mice)
Nature of the test: Aβ-degrading activity in soluble brain extracts at neutral pH. The format is biochemical. The note with it: 15-day-old mice; excess insulin; pH 7.5 to 9.5. An excerpt:
(§1) As an initial step towards elucidating the role of CatD in Aβ proteostasis, we quantified rates of Aβ degradation in vitro in soluble brain extracts from CatD-KO mice and wild-type controls as a function of pH, focusing on extracts from 15-day-old mice, due to the premature lethality of CatD-KO mice that occurs by ~ 4 weeks of age. Consistent with previous results, Aβ-degrading activity was present principally within two pH ranges: at neutral pH (pH 7.5 to 9.5) and—to a considerably larger extent—also at acidic pH (pH 2.5 to 4.5) (Fig. 1a). The Aβ-degrading activity at neutral pH was inhibited by excess insulin and reflects the activity of the neutral protease insulin-degrading enzyme (IDE), as shown previously by McDermott and Gibson. […] To extend and confirm these findings, we quantified Aβ degradation at pH 4.0 in soluble brain extracts from CatD-KO and WT mice, as well as heterozygous null (CatD-HET) mice (Fig. 1b). […] Consistent with this, levels of both preprocathepsin D and mature CatD protein in the CatD-HET animals were also determined to be > 50% of WT levels (Fig. 1c, d), with mature CatD protein being reduced by only 26.0 ± 14.2% relative to WT controls (p > 0.05; Fig. 1d). […]

Test [4] has as its target T3, CatD (Mus musculus, UniProt P18242).
T3 construct: freshly harvested brain tissue from 15-day-old mice was dissociated in 20 mM Tris-HCl, pH 7.4; from tissue; host or cells: mouse brain, soluble extract (15-day-old WT and CatD-HET mice)
Description: Aβ-degrading activity in soluble brain extracts at pH 4.0. The format is biochemical. The note with it: 15-day-old mice, 4 replicates.
Excerpt: as §1

Several values for one entry are separate records, joined by “and”; a condition that tells them apart may be missing. Equal entries are not always repeated. Entries after “also recorded” stand apart in the source; their conditions may differ.

T1 sequence (P07339 65-412): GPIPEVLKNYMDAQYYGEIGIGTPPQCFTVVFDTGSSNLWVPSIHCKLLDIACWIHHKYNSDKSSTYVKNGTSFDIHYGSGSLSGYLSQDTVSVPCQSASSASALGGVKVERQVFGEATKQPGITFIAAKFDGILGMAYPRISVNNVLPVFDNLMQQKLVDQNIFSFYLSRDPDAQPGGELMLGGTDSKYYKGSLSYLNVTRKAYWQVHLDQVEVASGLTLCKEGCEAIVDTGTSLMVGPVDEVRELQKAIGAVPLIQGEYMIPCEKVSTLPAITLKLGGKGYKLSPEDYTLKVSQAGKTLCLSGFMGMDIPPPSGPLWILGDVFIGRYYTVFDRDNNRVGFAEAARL
T3 sequence (P18242 65-410): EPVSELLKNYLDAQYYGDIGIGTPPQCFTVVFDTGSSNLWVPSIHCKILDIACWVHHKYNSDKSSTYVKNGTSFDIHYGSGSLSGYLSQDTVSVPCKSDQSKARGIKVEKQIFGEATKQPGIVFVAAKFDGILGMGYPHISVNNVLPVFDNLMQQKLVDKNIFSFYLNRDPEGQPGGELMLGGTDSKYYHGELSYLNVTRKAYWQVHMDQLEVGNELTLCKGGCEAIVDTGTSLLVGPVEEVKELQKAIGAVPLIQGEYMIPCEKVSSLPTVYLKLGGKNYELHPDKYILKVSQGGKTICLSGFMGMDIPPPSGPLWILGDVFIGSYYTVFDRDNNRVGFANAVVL
T2 sequence (Q9JHR7 whole entry): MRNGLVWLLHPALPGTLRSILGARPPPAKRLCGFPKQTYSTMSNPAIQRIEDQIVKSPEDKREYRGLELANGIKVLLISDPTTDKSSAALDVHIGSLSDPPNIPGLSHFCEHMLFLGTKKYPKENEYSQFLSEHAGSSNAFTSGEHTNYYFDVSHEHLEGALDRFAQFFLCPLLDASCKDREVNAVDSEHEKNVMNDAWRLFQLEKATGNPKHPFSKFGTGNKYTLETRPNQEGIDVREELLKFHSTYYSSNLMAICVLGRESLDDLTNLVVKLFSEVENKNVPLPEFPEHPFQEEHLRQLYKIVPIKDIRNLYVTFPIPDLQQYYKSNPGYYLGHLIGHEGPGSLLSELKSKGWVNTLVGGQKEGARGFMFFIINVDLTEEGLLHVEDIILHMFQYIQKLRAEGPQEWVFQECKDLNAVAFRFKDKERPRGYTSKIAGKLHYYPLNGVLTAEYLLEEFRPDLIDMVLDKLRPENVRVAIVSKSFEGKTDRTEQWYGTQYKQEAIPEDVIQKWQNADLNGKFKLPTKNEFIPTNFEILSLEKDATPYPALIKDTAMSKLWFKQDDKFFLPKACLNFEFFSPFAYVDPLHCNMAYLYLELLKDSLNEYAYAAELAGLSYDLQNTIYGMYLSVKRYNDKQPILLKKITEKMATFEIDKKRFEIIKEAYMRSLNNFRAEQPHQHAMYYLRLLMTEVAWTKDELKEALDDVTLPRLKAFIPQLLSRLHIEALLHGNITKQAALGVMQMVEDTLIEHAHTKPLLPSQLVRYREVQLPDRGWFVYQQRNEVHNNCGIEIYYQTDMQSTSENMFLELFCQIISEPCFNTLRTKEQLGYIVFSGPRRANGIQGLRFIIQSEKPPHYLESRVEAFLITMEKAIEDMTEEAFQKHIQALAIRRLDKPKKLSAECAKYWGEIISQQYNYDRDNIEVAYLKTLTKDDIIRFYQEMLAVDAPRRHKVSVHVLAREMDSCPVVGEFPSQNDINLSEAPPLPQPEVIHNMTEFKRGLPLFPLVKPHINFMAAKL

With “Aβ(17–42): α-secretase-derived p3 fragment of APP ending at position 42 (LVFFAEDVGSNKGAIIGLMVGGVVIA; Amyloid-beta protein 42; UniProt P05067 688-713, looked up, fragment)”, the “inhibition of CatD activity at 1 μM peptide” value in the test with CatD [1] is “strongly inhibited and > 90%”. Still for that read-out and setting: the same measure for “Aβ(33–40): C-terminal fragment corresponding to Aβ(33–42), ending at position 40 (GLMVGGVV; Amyloid-beta protein 40; UniProt P05067 704-711, looked up, fragment)”: “modest but statistically significant inhibition”. The same measure, in the same setting: the same measure for “Aβ(33–42): short C-terminal fragment of Aβ42 (GLMVGGVVIA; Amyloid-beta protein 42; UniProt P05067 704-713, looked up, fragment)”: “failed to inhibit significantly”. In test [2], “full-length murine Aβ (mAβ(1–42)) (from UniProt P12023 672-713) (peptide)” returned an inhibition of CatD activity (fluorogenic substrate) by 1 μM peptide of over 90%. With insulin, the “inhibition of Aβ-degrading activity at neutral pH in brain extracts” value in test [3] is “inhibited”. Regarding pepstatin A, the “inhibition of Aβ-degrading activity in WT and CatD-HET brain extracts” value at CatD [4] is recorded as “largely inhibited; also recorded: inhibited almost completely”. As to “rodent Aβ42: full-length murine Aβ ending at position 42 (DAEFGHDSGFEVRHQKLVFFAEDVGSNKGAIIGLMVGGVVIA)”, the results for the “inhibition of CatD activity at 1 μM peptide” value with CatD [1] and with CatD [1] (listed as mAβ(1–42)) were over 90% and “strongly inhibited”, respectively.
